PMC8244488 (Current Research in Structural Biology, 2021)
No end group written: not given here.

B1: human Shank1 PDZ (652-765), GST tag removed (domain or fragment)
chain: GPGSDYIIKEKTVLLQKKDSEGFGFVLRGAKAQTPIEEFTPTPAFPALQYLESVDEGGVAWRAGLRMGDFLIEVNGQNVVKVGHRQVVNMIRQGGNTLMVKVVMVTRHPDMDEA

How the values were obtained:
[1] = target: C-terminally truncated ARAP3 peptide (human); test: fluorescence polarisation
[2] = target: T1, human Shank1 PDZ (652-765), GST tag removed (human, UniProt Q9Y566 652-765); test: fluorescence polarisation
T1 sequence: B1 chain

| Binder | fold change in affinity against ARAP3 (1414-1429) [1] [fold] | binding result [2] |
| --- | --- | --- |
| B1 | 2.5 | – |
| FPELIQDTSTSFSTTR (also: FITC label, position not given here) [ARAP3_(1414-1429) peptide] | – | binds |
